We go through one molecule from US20060200330A1, “Methods and systems for modeling and simulating biochemical pathways” (KOREA INSTITUTE OF SCIENCE AND TECHNOLOGY, priority 2005, published 2006).

Where two headings read alike, the source gives them in different places.

One assay concerns ERK. As to the kind of experiment: Western blot of ERK activation (anti-diphosphorylated ERK) in PC12 cells. Format: cell-based. Conditions: PC12 cells treated with 100 ng/ml EGF for 0 to 120 min. The protocol:
(§1) In order to confirm the simulation, PC12 cells treated with EGF (100 ng/ml) were used to measure the time data tracking the activation levels of MEK and ERK, respectively. […] Western blot analysis was performed as follows. PC12 cells were treated with 100 ng/ml EGF for 0 to 120 min. Dissolved protein samples were reacted by using anti-phosphorylated MEK antibodies and anti-diphosphorylated ERK antibodies. Then, the resultant was reacted with anti-HRP (horse radish peroxidase)-conjugated secondary antibodies and confirmed the presence of a band via ECL chemoluminscence.
(§2) PC12 cells treated with EGF or nerve growth factor (NGF) were examined to evaluate the efficacies of PD09859 (10 μM) and U0126 (0.01-10 μM) in respect of MEK and ERK activation. Western blot analysis was performed as follows. PC12 cells treated with PD09859 and U0126 were treated with 100 ng/ml of EGF or NGF for 5 min. Then, the resulting protein sample was separated by performing SDS/PAGE, and then blotted by using anti-phosphorylated MEK and anti-diphosphoryated ERK antibodies. Again, the resultant was blotted by using anti-HRP (horseradish peroxidase) conjugated secondary antibodies and identified in bands by ECL chemo-luminescence.
In general terms: In western blotting, separated proteins are transferred to a membrane and probed.

For the next assay, the system named is MEK. Nature of the assay: Western blot of MEK activation (anti-phosphorylated MEK) in PC12 cells. Type of assay: cell-based. The protocol:
as §1, §2

The next assay addresses EGFR. As to conditions: cited from earlier work.

B1: EGF: peptide growth factor composed of 55 amino acids in a long chain (protein, UniProt P01133 23-1207, looked up)
Pro-epidermal growth factor: PQHWSCPEGTLAGNGNSTCVGPAPFLIFSHGNSIFRIDTEGTNYEQLVVDAGVSVIMDFHYNEKRIYWVDLERQLLQRVFLNGSRQERVCNIEKNVSGMAINWINEEVIWSNQQEGIITVTDMKGNNSHILLSALKYPANVAVDPVERFIFWSSEVAGSLYRADLDGVGVKALLETSEKITAVSLDVLDKRLFWIQYNREGSNSLICSCDYDGGSVHISKHPTQHNLFAMSLFGDRIFYSTWKMKTIWIANKHTGKDMVRINLHSSFVPLGELKVVHPLAQPKAEDDTWEPEQKLCKLRKGNCSSTVCGQDLQSHLCMCAEGYALSRDRKYCEDVNECAFWNHGCTLGCKNTPGSYYCTCPVGFVLLPDGKRCHQLVSCPRNVSECSHDCVLTSEGPLCFCPEGSVLERDGKTCSGCSSPDNGGCSQLCVPLSPVSWECDCFPGYDLQLDEKSCAASGPQPFLLFANSQDIRHMHFDGTDYGTLLSQQMGMVYALDHDPVENKIYFAHTALKWIERANMDGSQRERLIEEGVDVPEGLAVDWIGRRFYWTDRGKSLIGRSDLNGKRSKIITKENISQPRGIAVHPMAKRLFWTDTGINPRIESSSLQGLGRLVIASSDLIWPSGITIDFLTDKLYWCDAKQSVIEMANLDGSKRRRLTQNDVGHPFAVAVFEDYVWFSDWAMPSVMRVNKRTGKDRVRLQGSMLKPSSLVVVHPLAKPGADPCLYQNGGCEHICKKRLGTAWCSCREGFMKASDGKTCLALDGHQLLAGGEVDLKNQVTPLDILSKTRVSEDNITESQHMLVAEIMVSDQDDCAPVGCSMYARCISEGEDATCQCLKGFAGDGKLCSDIDECEMGVPVCPPASSKCINTEGGYVCRCSEGYQGDGIHCLDIDECQLGEHSCGENASCTNTEGGYTCMCAGRLSEPGLICPDSTPPPHLREDDHHYSVRNSDSECPLSHDGYCLHDGVCMYIEALDKYACNCVVGYIGERCQYRDLKWWELRHAGHGQQQKVIVVAVCVVVLVMLLLLSLWGAHYYRTQKLLSKNPKNPYEESSRDVRSRRPADTEDGMSSCPQPWFVVIKEHQDLKNGGQPVAGEDGQAADGSMQPTSWRQEPQLCGMGTEQGCWIPVSSDKGSCPQVMERSFHMPSYGTQTLEGGVEKPHSLLSANPLWQQRALDPPHQMELTQ
modifications: Pro-epidermal growth factor
notes: peptide growth factor composed of 55 amino acids in a long chain
As usually defined, the Kd is a measure of binding affinity in units of concentration. B1: the “ERK activation, time course” value with ERK was “temporary activation”. Further, the “MEK activation, time course” value with MEK (PC12 cells treated with 100 ng/ml EGF for 0 to 120 min) is recorded as “temporary activation”. For the same molecule, in the assay with MEK (PC12 cells treated with EGF 100 ng/ml for 5 min), the MEK activation entry is listed as “became still higher”. Also, the Kd on EGFR (EGFR high affinity binding, read-out: dissociation constant (Kd), interaction with a high affinity) was less than 1 nM; at EGFR (EGFR low affinity binding, read-out: dissociation constant (Kd), interaction with a low affinity) it was 6 to 12 nM.
